{
  "source": "patent US20200264182A1",
  "about": "“METHOD FOR DETECTING PROSTATE CANCER” (J-OIL MILLS, INC., priority 2017, published 2020)",
  "molecules": {"B1": {"name": "AAL: Aleuria aurantia lectin, has affinity for fucose α1→6 but is not specific; from J-OIL MILLS, Inc. (protein)", "chain": "PTEFLYTSKIAAISWAATGGRQQRVYFQDLNGKIREAQRGGDNPWTGGSSQNVIGEAKLFSPLAAVTWKSAQGIQIRVYCVNKDNILSEFVYDGSKWITGQLGSVGVKVGSNSKLAALQWGGSESAPPNIRVYYQKSNGSGSSIHEYVWSGKWTAGASFGSTVPGTGIGATAIGPGRLRIYYQATDNKIREHCWDSNSWYVGGFSASASAGVSIAAISWGSTPNIRVYWQKGREELYEAAYGGSWNTPGQIKDASRPTPSLPDTFIAANSSGNIDISVFFQASGVSLQQWQWISGKGWSIGAVVPTGTPAGW"}},
  "key": {"[1]": {"experiment": "Binding to sugar chains, summary of Tables 2 to 5", "settings": "sugar chains No. 015, 201 to 203, and 401 to 418", "method": "(§1) Details of the FAC method are described in Patent Document 2 filed by some of the present applicants, for example.\n(§2) Binding constants (at 25° C.) of PhoSL, SRL, NSL and LSL belonging to the fucose α1→6 specific lectin for various sugar chains are shown in Tables 2 to 5.\n(§3) The AAL and AOL bind to the fucose α1→6 sugar chains (sugar chains No. 015, 201 to 203, and 401 to 418), as well as to the glycolipid-type sugar chain excluding the fucose α1→6 (sugar chains No. 718, 722, 723, 727, 909, 910 and 933). The LCL and PSL bind to the fucose α1→6 sugar chain, as well as to sugar chain excluding the α1→6 fucose (sugar chains No. 003, and 005 to 014).\nFurthermore, the binding constant of the fucose α1→6 specific lectin is not decreased even if a sialic acid is added to the fucose α1→6 sugar chain (sugar chains No. 601 and 602). In addition, the fucose α1→6 specific lectin also strongly binds to the triple-strand (sugar chains No. 407 to 413) and the four-strand (sugar chains No. 418) of the fucose uα1→6 sugar chain."}, "[2]": {"experiment": "FAC binding constant (Table 5 entry)", "settings": "Table 5: sugar chain having no fucose; at 25° C.", "method": "as §1, §2"}, "[3]": {"tested_on": "serum fucosylated PSA", "experiment": "Sandwich ELISA, anti-PSA antibody and biotin-labeled lectin", "type": "binding, human", "method": "The anti-PSA antibody from which sugar chains had been removed was diluted to 5 μg/mL with PBS. 25 μL of this diluted solution was added to each well of an ELISA plate and allowed to stand at 37° C. for 12 hours, and then the additive solution was discarded.\n150 μL of PBS containing 0.05% Tween 20 (product name: polyoxyethylene sorbitan monolaurate, from Nacalai Tesque, Inc.) was added to each well, and then the additive solution was discarded. This manipulation was repeated three times in total.\n25 μL of 1% BSA/PBS was added to each well and allowed to stand at 37° C. for 1 hour, and then the additive solution was discarded.\n150 μL of PBS containing 0.05% Tween 20 was added to each well, and then the additive solution was discarded. This manipulation was repeated three times in total.\nTo graph a calibration curve, 25 μL of the fucosylated PSA reference standard diluted with 1% BSA/PBS to a concentration of 0 to 200 ng/mL was added to each well and allowed to stand at room temperature for 1 hour, and then the additive solution was discarded. In addition, to detect the fucosylated PSA in the serum of the subject by the lectin, 25 μL of serum of “Healthy 1” and “Prostate cancer 4” 2-fold diluted with PBS was added to each well and allowed to stand at room temperature for 1 hour, and then the additive solution was discarded.\nIn Reference Example 1, 25 μL of a biotin-labeled PhoSL diluted to 0.1 μg/mL with 0.1% BSA/PBS (pH 7.4) was added to each well and allowed to stand at 4° C. for 30 minutes, and then the additive solution was discarded. In Example 1, 25 μL of a biotin-labeled PhoSL diluted to 0.1 μg/mL with 0.1% BSA/10-fold diluted PBS+glycine-NaOH (pH 9.6) was added to each well and allowed to stand at 4° C. for 30 minutes, and then the additive solution was discarded.\n25 μL of a horseradish peroxidase (HRP)-labeled streptavidin solution (from Vector Laboratories, Inc., concentration: 0.4 μg/mL, in 1% BSA/PBS) was added to each well and allowed to stand at room temperature for 30 minutes, and then the additive solution was discarded.\n25 μL of chromogenic substrate for HRP (product name: TMB, from Kirkegaard & Perry Laboratories, Inc.) was added to each well and allowed to stand at room temperature for 10 minutes.\n25 μL of 1M phosphoric acid was added to terminate the reaction.\nAbsorbance (Ab) at 450 nm and 630 nm was measured using a plate reader, and a measurement (Ab450-630) was obtained.\nA calibration curve was graphed by plotting signals (reaction values, Ab450-630) of the fucosylated PSA reference standard with the biotin-labeled PhoSL. A Signal (Ab450-630) of the biotin-labeled PhoSL corresponding to the fucosylated PSA concentration of 10 ng/mL was defined as 10 U/mL.\nThe signals of biotin-labeled PhoSL (Ab450-630) for the serum fucosylated PSA in the subject samples A were assigned to the calibration curve to calculate reaction values (unit: U/mL).\nThe PhoSL reaction values for the subject samples A were measured by the same operation as in Example 1. From the PhoSL reaction values, an average value and a median value were determined. Furthermore, a standard cutoff value (89.7 U/mL) was used to determine a detection rate (positive rate) of the prostate cancer patients, and a false detection rate (false positive rate) of the healthy persons.\nComparative Example 2 in Table 9 indicates results of detecting the serum fucosylated PSA using AAL (AAL reaction values) in the subject samples A. Specifically, in Reference Example 1, AAL reaction values were measured in the same manner as in Reference Example 1 except that the biotin-labeled PhoSL was replaced with a biotin-labeled AAL. A standard cut-off value for the AAL reaction values was 894.8 U/mL. As in Example 2, an average value, a median value, a positive rate and a false positive rate were determined from the AAL reaction values."}, "[4]": {"experiment": "Binding to sugar chains, summary of Tables 2 to 5", "settings": "sugar chains No. 718, 722, 723, 727, 909, 910 and 933", "method": "as §1, §2, §3"}, "[5]": {"settings": "subject samples A, 7 healthy persons, pH 7.4"}, "[6]": {"settings": "subject samples A, 9 patients, pH 7.4"}},
  "data": [
    {"molecule": "B1", "values": [
      {"measurement": "binding to the fucose α1→6 sugar chains (in words)", "setting": "[1]", "result": "bind"},
      {"measurement": "Binding constant for sugar chain No. 728", "setting": "[2]", "result": "<1000", "unit": "M⁻¹"},
      {"measurement": "lectin reaction value B of Healthy 1", "setting": "[3]; serum of Healthy 1, pH in lectin reaction 7.4", "result": 1099.6, "unit": "U/mL"},
      {"measurement": "lectin reaction value of Healthy 2", "setting": "[3]; serum of Healthy 2, pH in lectin reaction 7.4", "result": 854.6, "unit": "U/mL"},
      {"measurement": "lectin reaction value of Healthy 3", "setting": "[3]; serum of Healthy 3, pH in lectin reaction 7.4", "result": 1062.7, "unit": "U/mL"},
      {"measurement": "lectin reaction value of Healthy 4", "setting": "[3]; serum of Healthy 4, pH in lectin reaction 7.4", "result": 115.0, "unit": "U/mL"},
      {"measurement": "lectin reaction value of Healthy 5", "setting": "[3]; serum of Healthy 5, pH in lectin reaction 7.4", "result": 32.3, "unit": "U/mL"},
      {"measurement": "lectin reaction value of Healthy 6", "setting": "[3]; serum of Healthy 6, pH in lectin reaction 7.4", "result": 1193.1, "unit": "U/mL"},
      {"measurement": "lectin reaction value of Healthy 7", "setting": "[3]; serum of Healthy 7, pH in lectin reaction 7.4", "result": 1028.8, "unit": "U/mL"},
      {"measurement": "lectin reaction value of Prostate cancer 1", "setting": "[3]; serum of Prostate cancer 1, GS 4 (2 + 2), pH in lectin reaction 7.4", "result": 831.2, "unit": "U/mL"},
      {"measurement": "lectin reaction value of Prostate cancer 2", "setting": "[3]; serum of Prostate cancer 2, GS 5 (2 + 3), pH in lectin reaction 7.4", "result": 1032.3, "unit": "U/mL"},
      {"measurement": "lectin reaction value of Prostate cancer 3", "setting": "[3]; serum of Prostate cancer 3, GS 6 (3 + 3), pH in lectin reaction 7.4", "result": 1152.7, "unit": "U/mL"},
      {"measurement": "lectin reaction value A of Prostate cancer 4", "setting": "[3]; serum of Prostate cancer 4, GS 6 (3 + 3), pH in lectin reaction 7.4", "result": 926.5, "unit": "U/mL"},
      {"measurement": "lectin reaction value of Prostate cancer 5", "setting": "[3]; serum of Prostate cancer 5, GS 7 (3 + 4), pH in lectin reaction 7.4", "result": 1025.0, "unit": "U/mL"},
      {"measurement": "lectin reaction value of Prostate cancer 6", "setting": "[3]; serum of Prostate cancer 6, GS 7 (3 + 4), pH in lectin reaction 7.4", "result": 961.5, "unit": "U/mL"},
      {"measurement": "lectin reaction value of Prostate cancer 7", "setting": "[3]; serum of Prostate cancer 7, GS 8 (3 + 5), pH in lectin reaction 7.4", "result": 1211.9, "unit": "U/mL"},
      {"measurement": "lectin reaction value of Prostate cancer 8", "setting": "[3]; serum of Prostate cancer 8, GS 8 (4 + 4), pH in lectin reaction 7.4", "result": 1010.0, "unit": "U/mL"},
      {"measurement": "lectin reaction value of Prostate cancer 9", "setting": "[3]; serum of Prostate cancer 9, GS 8 (4 + 4), pH in lectin reaction 7.4", "result": 988.1, "unit": "U/mL"},
      {"measurement": "reaction value, Healthy person group, Average value", "setting": "[3]; [5]", "result": 769.4, "unit": "U/mL"},
      {"measurement": "reaction value, Healthy person group, Median value", "setting": "[3]; [5]", "result": 1028.8, "unit": "U/mL"},
      {"measurement": "reaction value, Prostate cancer patient group, Average value", "setting": "[3]; [6]", "result": 1015.5, "unit": "U/mL"},
      {"measurement": "reaction value, Prostate cancer patient group, Median value", "setting": "[3]; [6]", "result": 1010.0, "unit": "U/mL"},
      {"measurement": "reaction value, GS6, Mean value", "setting": "[3]; subject samples A, n 2, pH 7.4", "result": 1039.6, "unit": "U/mL"},
      {"measurement": "reaction value, GS6, Median value", "setting": "[3]; subject samples A, n 2, pH 7.4", "result": 1039.6, "unit": "U/mL"},
      {"measurement": "reaction value, GS7, Mean value", "setting": "[3]; subject samples A, n 2, pH 7.4", "result": 993.3, "unit": "U/mL"},
      {"measurement": "reaction value, GS7, Median value", "setting": "[3]; subject samples A, n 2, pH 7.4", "result": 993.3, "unit": "U/mL"},
      {"measurement": "reaction value, Negative (GS5 or less), Mean value", "setting": "[3]; subject samples A, n 2, pH 7.4", "result": 931.8, "unit": "U/mL"},
      {"measurement": "reaction value, Negative (GS5 or less), Median value", "setting": "[3]; subject samples A, n 2, pH 7.4", "result": 931.8, "unit": "U/mL"},
      {"measurement": "reaction value, GS8 or more, Mean value", "setting": "[3]; subject samples A, n 3, pH 7.4", "result": 1070.0, "unit": "U/mL"},
      {"measurement": "reaction value, GS8 or more, Median value", "setting": "[3]; subject samples A, n 3, pH 7.4", "result": 1010.0, "unit": "U/mL"},
      {"measurement": "binding to the glycolipid-type sugar chain excluding the fucose α1→6 (in words)", "setting": "[4]", "result": "bind"}
    ]}
  ]
}
